Target: the molecule itself
Experiment: native polyacrylamide gel electrophoresis; self-association of the subunit

B1: protease according to the invention from Burkholderia glumae PG1, expressed from pETpro in E. coli BL21DE3 as a fusion protein with C-terminal 6xHis-tag (enzyme)
chain: MQQRGGSMSKKIAVLAVDEFEDSELVEPLRALRKAGAEVDVISQQAGEVKGFRHADKGEAVKVDRTFDEVREGEFDALLLPGGLLRGDNRMLPAAREFVTAGKPVFAICHGGWLLGSSGVINGRKLTAWPSLQDDVKNAGGEFYDQEVVRDKDQLITSRKPDDLPAFNREALRLLGAGA
notes: also called putative protease; ThiJ/PfpI protein; not shown: C-terminal 6xHis-tag from vector pET22b
B1: binds.
